According to IntAct's records for PubMed 22307056:

Tests used:
fbw1b_human FBXW11 = fbw1b_human FBXW11 (UniProt Q9UKB1)
mk03_mouse Mapk3 = mk03_mouse Mapk3 (UniProt Q63844)
mk03_mouse Mapk3, sequence (Q63844 whole entry): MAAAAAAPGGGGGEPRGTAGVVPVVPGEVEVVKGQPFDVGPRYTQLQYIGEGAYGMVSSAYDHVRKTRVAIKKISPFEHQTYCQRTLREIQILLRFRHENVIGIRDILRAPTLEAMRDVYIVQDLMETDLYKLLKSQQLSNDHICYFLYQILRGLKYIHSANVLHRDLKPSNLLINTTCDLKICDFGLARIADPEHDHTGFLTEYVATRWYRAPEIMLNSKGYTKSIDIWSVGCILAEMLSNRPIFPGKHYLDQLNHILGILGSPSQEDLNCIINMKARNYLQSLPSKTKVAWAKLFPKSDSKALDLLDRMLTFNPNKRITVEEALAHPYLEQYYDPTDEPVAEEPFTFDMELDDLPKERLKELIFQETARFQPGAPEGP

fbw1b_human FBXW11, sequence (Q9UKB1 whole entry): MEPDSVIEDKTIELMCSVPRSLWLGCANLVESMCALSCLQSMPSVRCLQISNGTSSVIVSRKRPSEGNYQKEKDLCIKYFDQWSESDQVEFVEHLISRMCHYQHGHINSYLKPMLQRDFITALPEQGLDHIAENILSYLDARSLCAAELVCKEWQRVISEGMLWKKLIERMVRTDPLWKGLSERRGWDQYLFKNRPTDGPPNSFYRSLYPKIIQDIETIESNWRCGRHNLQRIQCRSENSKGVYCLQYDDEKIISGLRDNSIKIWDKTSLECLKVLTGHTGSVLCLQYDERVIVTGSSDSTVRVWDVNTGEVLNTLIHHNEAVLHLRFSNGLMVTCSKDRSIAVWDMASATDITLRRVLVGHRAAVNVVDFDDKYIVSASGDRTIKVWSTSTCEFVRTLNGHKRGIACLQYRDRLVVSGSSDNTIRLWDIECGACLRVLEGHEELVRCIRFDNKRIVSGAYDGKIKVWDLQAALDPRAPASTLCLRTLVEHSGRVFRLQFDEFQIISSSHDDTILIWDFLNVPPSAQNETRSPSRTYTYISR
Krueppel-like factor 4 (Mus musculus), Q60793 L101A;L103A, sequence (Q60793 whole entry L101A/L103A): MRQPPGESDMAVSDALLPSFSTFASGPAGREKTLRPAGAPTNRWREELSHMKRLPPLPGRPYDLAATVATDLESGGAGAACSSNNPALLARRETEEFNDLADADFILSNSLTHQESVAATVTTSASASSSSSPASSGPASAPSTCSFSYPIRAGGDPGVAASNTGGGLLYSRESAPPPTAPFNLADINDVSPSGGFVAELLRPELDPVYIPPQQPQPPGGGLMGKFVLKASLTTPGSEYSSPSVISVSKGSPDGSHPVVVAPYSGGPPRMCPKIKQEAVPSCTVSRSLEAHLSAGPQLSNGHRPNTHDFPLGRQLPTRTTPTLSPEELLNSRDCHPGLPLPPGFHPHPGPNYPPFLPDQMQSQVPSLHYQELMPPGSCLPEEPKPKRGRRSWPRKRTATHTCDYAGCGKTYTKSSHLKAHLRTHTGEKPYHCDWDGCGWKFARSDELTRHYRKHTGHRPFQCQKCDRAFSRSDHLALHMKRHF
Krueppel-like factor 4 (Mus musculus), Q60793 S136A, sequence (Q60793 whole entry S136A): as the sequence (Q60793 whole entry L101A/L103A) above, with A101L, A103L, S136A counted along it
Krueppel-like factor 4 (Mus musculus), Q60793 L89A;R91A;R92A;L101A;L103A, sequence (Q60793 whole entry L89A/R91A/R92A/L101A/L103A): as the sequence (Q60793 whole entry L101A/L103A) above, with L89A, R91A, R92A counted along it
Krueppel-like factor 4 (Mus musculus), Q60793 L89A;R91A;R92A, sequence (Q60793 whole entry L89A/R91A/R92A): as the sequence (Q60793 whole entry L101A/L103A) above, with L89A, R91A, R92A, A101L, A103L counted along it
Krueppel-like factor 4 (Mus musculus), Q60793 S132A, sequence (Q60793 whole entry S132A): as the sequence (Q60793 whole entry L101A/L103A) above, with A101L, A103L, S132A counted along it
Krueppel-like factor 4 (Mus musculus), Q60793 S140A, sequence (Q60793 whole entry S140A): as the sequence (Q60793 whole entry L101A/L103A) above, with A101L, A103L, S140A counted along it

| Substance | effect of a mutation on the interaction (fbw1b_human FBXW11) | effect of a mutation on the interaction (mk03_mouse Mapk3) |
| --- | --- | --- |
| Krueppel-like factor 4 (Mus musculus), Q60793 S136A | decreasing interaction strength |  |
| Krueppel-like factor 4 (Mus musculus), Q60793 L101A;L103A |  | decreasing interaction strength |
| Krueppel-like factor 4 (Mus musculus), Q60793 S132A | decreasing interaction strength |  |
| Krueppel-like factor 4 (Mus musculus), Q60793 S140A | decreasing interaction strength |  |
| Krueppel-like factor 4 (Mus musculus), Q60793 L89A;R91A;R92A |  | disrupting interaction strength |
| Krueppel-like factor 4 (Mus musculus), Q60793 L89A;R91A;R92A;L101A;L103A |  | disrupting interaction strength |
